{
  "source": "paper PMC8301065",
  "key": {"[1]": {"molecular_target": "human cardiac α-actin mutant p.R312H (human)"}, "[2]": {"molecular_target": "human cardiac α-actin mutant p.E361G (human)"}, "[3]": {"molecular_target": "human cardiac muscle wild-type α-actin (recombinant) (human) (UniProt P68032)"}, "[4]": {"molecular_target": "human cardiac α-actin mutant p.A295S (human)"}, "[5]": {"molecular_target": "human cardiac muscle wild-type α-actin (recombinant) (human) (UniProt P68032)", "assay": "pyrene-actin polymerization assay; 5 µM c-actin with pyrene-labeled skeletal muscle actin added at 20:1, G-buffer; polymerization induced by 2 mM MgCl2 and 0.1 M KCl; rise of pyrene fluorescence; control without nucleator"}},
  "data": [
    {"substance": "Arp2/3 complex isolated from Acanthameba castellani", "values": [
      {"measurement": "half time of polymerization (t1/2) of 5 µM c-actin with 50 nM Arp2/3 complex, pyrene-actin assay (control without nucleator 13.8 min)", "setting": "[1]", "value": 1, "unit": "min"},
      {"measurement": "half time of polymerization (t1/2) of 5 µM c-actin with 50 nM Arp2/3 complex, pyrene-actin assay (control without nucleator 4.0 min)", "setting": "[2]", "value": 1.8, "unit": "min"},
      {"measurement": "half time of polymerization (t1/2) of 5 µM c-actin with 50 nM Arp2/3 complex, pyrene-actin assay (control without nucleator 8.6 min)", "setting": "[3]", "value": 2.1, "unit": "min"},
      {"measurement": "half time of polymerization (t1/2) of 5 µM c-actin with 50 nM Arp2/3 complex, pyrene-actin assay (control without nucleator 12.2 min)", "setting": "[4]", "value": 1.2, "unit": "min"}
    ]},
    {"substance": "FH2-domain of the formin mDia3 (from UniProt O70566 625-1025) (domain or fragment)", "values": [
      {"measurement": "half time of polymerization (t1/2) of 5 µM c-actin with 50 nM mDia3-FH2, pyrene-actin assay (control without nucleator 13.8 min)", "setting": "[1]", "value": 4.1, "unit": "min"},
      {"measurement": "half time of polymerization (t1/2) of 5 µM c-actin with 50 nM mDia3-FH2, pyrene-actin assay (control without nucleator 4.0 min)", "setting": "[2]", "value": 2.9, "unit": "min"},
      {"measurement": "half time of polymerization (t1/2) of 5 µM c-actin with 50 nM mDia3-FH2, pyrene-actin assay (control without nucleator 8.6 min)", "setting": "[3]", "value": 6.9, "unit": "min"},
      {"measurement": "half time of polymerization (t1/2) of 5 µM c-actin with 50 nM mDia3-FH2, pyrene-actin assay (control without nucleator 12.2 min)", "setting": "[4]", "value": 3.5, "unit": "min"}
    ]},
    {"substance": "human cardiac muscle wild-type α-actin (recombinant) (from UniProt P68032 1-377) (natural protein)", "values": [
      {"measurement": "half time of polymerization (t1/2)", "setting": "[5]", "value": 8.6, "unit": "min"}
    ]}
  ]
}
